Assay [1] deals with T1, human non-variant SASH1-SPIDER (396-564) (human, UniProt O94885 396-564).
T1 sequence (looked up): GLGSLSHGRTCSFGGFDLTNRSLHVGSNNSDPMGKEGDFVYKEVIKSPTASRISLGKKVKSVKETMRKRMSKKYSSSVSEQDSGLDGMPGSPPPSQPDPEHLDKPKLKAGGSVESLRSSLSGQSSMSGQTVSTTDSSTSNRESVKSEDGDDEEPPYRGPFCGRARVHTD
Put plainly: MST.

Assay [2] has as its target T2, SASH1-SPIDER (396-564) S519N (human, UniProt O94885 396-564, S519N).
T2 sequence (looked up): T1 sequence (looked up) with S124N
Put plainly: NMR titration.

Substitutions are numbered along the chain they refer to.

One molecule from doi:10.1101/2023.09.26.559624 (bioRxiv, 2023) can be followed below.

As usually defined, the Kd is the concentration at which binding is half-saturated. A higher Kd goes with lower affinity.

B1: ARC4 domain of TNKS2 with flanking residues (488-649) (domain or fragment, UniProt Q9H2K2 488-649, looked up)
chain: GNSEADRQLLEAAKAGDVETVKKLCTVQSVNCRDIEGRQSTPLHFAAGYNRVSVVEYLLQHGADVHAKDKGGLVPLHNACSYGHYEVAELLVKHGAVVNVADLWKFTPLHEAAAKGKYEICKLLLQHGADPTKKNRDGNTPLDLVKDGDTDIQDLLRGDAAL
modifications: red fluorescent dye NT-647 Maleimide (in the MST experiment only)
For the molecule B1, the Kd in assay [1] came out at 1.7 ± 0.4 µM. Also, the “fold attenuation of affinity against N.V.” value in assay [2] was ~10 fold.
